Experiment: yeast display, Sf9 membrane polyspecificity reagent, FACS + sequencing; frameworks hold sequencing errors
Outline: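 In a synthetic yeast display library (Saccharomyces cerevisiae BJ5465), nanobody expression was induced with galactose for 36–48 hours. FACS gates were set low and high (top ~1%) using anti-HA fluorescence for expression and streptavidin fluorescence for binding of the Sf9 membrane reagent. Each polyreactivity label is drawn from the gate of origin.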

Row | Sequence | polyreactivity (PSR sort gate)
1 | QVQLVESGGGLVQAGGSLRLSCAASGRIFAKNAMGWYRQAPGKERELVAAINHSGGSTYYADSVKGRFTISRDNAKNTVYLQMNSLKPEDTAVYYCAARGLTTRSPFYYWGQGTQVTVSS | high polyreactivity
2 | QVQLVESGGGLVQAGGSHRVRCAASGRTFSQYDLGWYRQEPGKERELVAAITRSGSRTYYADSVKGRFTISRDNAKNTVYLQMNSLKPEDTAVYYCNARSISRKKGYPPQRRDGYWGQGTQVTVSS | high polyreactivity
3 | QVQLVESGGGLVQAGGSLRLSCAASGFTFLIYAMGWYIQAPGKERELVADISYNDDITYYADSVKGRFTISRDNAKNTVYLQMNSLKPEDTAVYYCAADYVNPELDYWGQGTQVTVSS | low polyreactivity
4 | QVQHVESVGGLLQAGCSLRLSCAPSGRIFGENAIGWYRQAPGKEREFLAVISISDASTYYADSVKGRFTISRDNAKNTGYLQMNSLKPDDTAVYYCAADLTDFLYVASDYWGQGTQVTVSS | low polyreactivity
5 | QVQLVESGGGLVQAGGSLRLSCAASGSTFYLNAMGWYRQAPGKERELVATKNSSGSTYNADSVKGRFTISRDNAKNTVYLQMNILKPEDTAVYYCNAYGSDRLSLDDYWGQGTQVTVSS | low polyreactivity
6 | QVQLVESGGGLVQAGGSLRLSCAASGIIFRWYVMGWYRQAPGKERELVAAISYRRGSTNYADSVKGRFTISRDNAKNTVYLQMNSLKPEDTAVYYCNRVPYPGSRRKYDYWGQGTQVTVSS | high polyreactivity
7 | QVQLVDSGGGLVQAVGSLRLSCAASGRTFYANAMGWYRQAPGKERELVAAISSRSGTTHYADSVKGRFTISRDNAKNTVYLQMNSLKPEDTAVYYCNRQKWRLLTMGAHNRQAYDSWGQGTQVSVSS | low polyreactivity
8 | QVQLVESGGGLVQAGGSLRLSCAASGRTLYANTMGWYRPAPGKERELVATIPRDGSTNYADSVKGRFTISRDTAKNTVYLQMNSLKPEDTAVYYCNADLWVNLDNDDDYWGQGTQVTVSS | low polyreactivity
9 | QVQLVESGGGLVHAGGSLRLSCAASGFTSYENAMGWYRQAPGKEREFVAAISYIAGNTYYSDSVKGRFTISRDNAKNTVYLQMNSLKPEDTAVYYCAKTKYILPGNAYVNYDTTAYDYWGQGTQVTVSS | low polyreactivity
10 | QVQLVESGGGLVQAGGSLRLSCAASGSTFNYYAMGGNRQAPGKESELVAAISTRGSSTSYADSVKGRFTISRDNAKNTVYLQMNSLKPEDTAVYYCTAPRWSPRRYGYWGQGTQVTVSS | high polyreactivity
11 | QVQLVESGGGLVQAGGSLRLSCAASGSIFSRNAMGWSRPAPGKERELVAAISWSGGRKYYADSVKGRFTISRDNAKNTVYLQMNSLKPEDTAVYYCAAKVGYLAAYGRIRVYRYGYWGQGTQVTVSS | high polyreactivity
12 | QVQLVESGGGLVQAGGSLRLSCAASGFIFSTNAMGWYRQAPGKERELVAAISRRGGNTYYADSVKGRFTISRDNAKNTVYLQMNSLKPEDTAVYYCNAVFRSGGLDYWGQGTQVTVSS | high polyreactivity
13 | QVQLVESGGGLVQAGGSLRLSCAASGSTFGLYAMGWYRQAPGKERELVAAITSTGGSTYYADSVKGRFTISRDNAKNTVYLQMNSLKPEDTAVYYCARDYRSGYDYWGQGTQVTVSS | low polyreactivity
14 | QVQLVESGGGLVQAGGSLRLSCAASGITLDVNAMGWYRQAPGKERELVADITWSDDSTYYADSVKGRFTISRDNAKNTVYLQMNSLKPEDTAVYYCAADVSVSFHPRGYDYWGQGTQVTVSS | low polyreactivity
15 | QVQLVESGGGIVQAVGSLRLSCAASGSTFRLYAMGWYRQAPGKERELVAAISSNGVRTYYADSVKGRFTISRDNAKNTVYLQINSLKPEDTAVYYCAARVYPAYPRGYDYWGQGTQVNVSS | high polyreactivity
16 | QVQLVESGGGLVQAGGSLRLSCAASGSIFRYYAMGWYRQAPGKERELVASISWSGTSTNYADSVKGRFTISRDNAKNTVYLQMNSLKPEDTAVYYCNKVRWGRYYTRYDYWGQGTQVTVSS | high polyreactivity
17 | QVQLVESGGGLVQAGGSLRLSCAASGSTFVIYTMGGSRQAPGKERELVAAISWSGGITRYADSVKGRFTISRDIAKNTVYLQMNSLKPEDTAVYYCNASQWPSRFDYWGQGTQVSVSS | low polyreactivity
18 | QVQLVESGGGLVQAGGSLRLSCAASGRIFWYYAMGWYRQAPGKERELVAAITRSGASTYYADSVKGRFTISRDNAKNTVYLQMNSLKPEDTAVYYCAARGRWNVPARRDYWGQGTQVTVSS | high polyreactivity
19 | QVQLVESGRGLVQAGGSLRISCAASGFIFSKYAMGWYRQAPGKERELVAAISYSGGSTYYADSVKGRFTISRDNAKNTVYLQMNSLKPEDTAVYYCAAEGYGGYEHWGQGTQVTVSS | low polyreactivity
20 | QVQLEESGGGLVQAGGSLRLSCAASGIIFAYYAMGWYRQAPGKERELVGTNYADSVKGRFTISRDNAKNTVYLQMNSLKPEDTAVYYCAVVGGEFSSYGYWGQGTLVTVSS | low polyreactivity
21 | QVQLVESGGGLVQAGGSLRLSCAASGRIFGFYALGWYRQAPGKEREFVASISVRGASTYADSVKGRFTISRDNAKNTVYLQMYSLKPEDTAVYYCNKAVANDDGLEYWGQGTQVTVSS | high polyreactivity
22 | QVQLVESGGGLVQAGGSLRLSCAASGFIFCINAMGWYRQAPGKERELVAAISRSGGRTYYADSVKGRFTISRDNAKNTVYLQMNSLKPEDTAVYYCAADKASYTNYDGDYWGQGTQVTVSS | high polyreactivity

Row | Sequence | polyreactivity (PSR sort gate)
23 | QVQLGESGGGLVQAGGSLRLSCAASGRIFWYNAMGWYRQAPGKERELVAGIRSGGSTNYADSVKGRFTISRDNAKNTVYLQMNSLKPDDTAVYYCNVDHEARKLHVSIKQLSDHWGQGTQVTVSS | low polyreactivity
24 | QVQLQESGGGLMQAGGSQRLSCAESGSISYYSDMGWYRQAPGKEREFVAGIGYGTTTNYADSVKGRFTTSRDNAKNTVYLQMISMKPEDTAVYSCAAYQGNGYEFYYWGQGTQVTVRS | low polyreactivity
25 | QVQHVESRGGLVQAGGSLRLSCAASGNTFWYNAMGWYRQAPGKERELVAAITTSDFGTYYADSVKGRFTISRDNAKNTVYLQMNSLKPEDTAVYYCAAEVYTQRPYYYPAYDYWGQGTQVTVSS | high polyreactivity
26 | QVQLVESGGGLVQAGGRLRLSCAASGFTFRYYAMGWSRQAPGKERELVAGISYRGTSTYYADSVKGRFTISRDNAKNTVYLQMNSLKPEDTAVYYCADEVRYDRHDYWGQGTQVTVSS | high polyreactivity
27 | QVQLVESGGGLVQAGGSLRLSCAASGRTFVVYAMGWYRQAPGKERELVAAINWSGTSTYYADSVKGRFTISRDNAKNTVYLQMNSLKPEDTAVYYCAAVAGLGTYRRYGYWGQGTQVTVSS | high polyreactivity
28 | QVQLVESGGGLVQAGGSLRLSCAASGYIFVNAMGWYRQAPGKERELVAAISSGRSTHYADSVKGRFTISLDNAKNTVYLQLNSLKPEDTAVYYCNADLYSWYWAGYNYWGQGTQVTVSS | high polyreactivity
29 | QVQLVESGGGLVQAGGSLRLSCAASGRIFKVYAMGWYRQAPGKERDLVAVISRGGSTYYADSVKGRFTISRDNAKNTVYLQMKSLKPEDTAVYYCAARLTYTGGQGAYDYWGQGTQVTVSS | high polyreactivity
30 | QVQLQERGGVLVQAGGSLRLSCAASGTISYAPHMGWYRQATGKERELVAGITIGGTTYYADSVKGRFTISRDNAIHTVYLHMNSLCRGDTAVYFFAAHSEQYTPFYYWGQGTQLTVSS | low polyreactivity
31 | QVQLVESGGGLVQAGGSLRLSCAASGRTFYHYAMGWYRQAPGKESELVAAIDWSTASTYYADSVKGRFTISRDNAKNTVYLQMNSLKPEDTAVYYCATDTAILINFVLYDYWGQGTQVTVSS | low polyreactivity
32 | QVQLVESGGGLVQAGGSLRLSCAASGITFRKYFMGWYRQAPGKERELVATITRNGGTTNYADSVKGRFTISRDNAKNTVYLQMNSLKPEDTAVYYCAAPGPGYIYLGFDYWGQGTQVTVSS | high polyreactivity
33 | QVQRVESGGGLVQAGGSLRLSSAACGRIFSTYAMGRYRQAPGKERDLVPAIDWDGGGTYYADSVKGRFTISRDNAKNTVYLQMNSLKPEDTAVYYCAAETDLANGTSPSDYWGQGTQVTVSS | low polyreactivity
34 | QVQLVESGGGLVQAGGSLRLSCAASGYTFPYAMGWYRQAPGKERELVAAISSRGSSTYYADSVKGRFTISRDNAKNTVYLQINSLKPEDTAVYYCAAKHFVKVDYWGQGTQVTVSS | high polyreactivity
35 | QVQLVESGGGLVQAGGSLRLSCAASGRTIRWNAMGWYRQAPGKERELVAAITSRGGSTYYADSVKGRFTISRDNAKNTVYLQMNSLKPEDTAVYYCAKQPKPPPVTGYDYWGQGTQVTVSS | high polyreactivity
36 | QVQLVESGGGLVQAGGSLRLSCAASGSTFNDYAMGWYRQAPGKERELVAGITWRGTSTYYADSVKGRFTISRDNAKNTVYLQMNSLKPEDTAVYYCAADVYYLLWLWMDYWGQGTQVTVSS | low polyreactivity
37 | QVQLEESGGGLVQAGGSLRLSCAASGSIFVVYAMGWSRQAPGKERELVASIRTGGSTNYADSEKGRFTISRDNAKNNVYLQMNSLKPEDTAVYYCAAASWNSNRHYYVARYYYWGQGTQVTVSS | high polyreactivity
38 | QVQLVESGGGLVQAGGSLRLSCAASGSIFGYYAMGWYTQAPGKERELVASITRGGSTYYADSVKGRFTISRDNAKNTVYLQMNSLKPEDTAVYYCAAAQWWFRVRGARYYYWGQGTQVTVSS | high polyreactivity
39 | QVELVESGGGLVQAGGSLRLSCAASGSTFDPNAMGWYRQAPGKERELVASITSRGGSTYYADSVKGRFTISRDIAKNTVYLQMNSLKPEDTADYYCAAVGGATYSWNGYSWYPWHNYWGQGTQVTVSS | low polyreactivity
40 | QVQLVESGGGLVQAGGSLRLSCAASGSIFTANAMGWYRQAPGKERELVAAISRSGGRTYYADSLKGRFTISRDNEKNTVYLQWKSLKPEDTAVYYCNVGRFNTSGYDYWGLGTQVTVSS | high polyreactivity
41 | QVQLVESGGGLVQAGASRRLSCAASVFTFGDNAMGWSRQATGKDRELVDAITSSGSTNYADSVKGRFTMSRDIAKNTVYLQLNSLTQEDTAVNYCNAEDSVDAPVYKDLGSEYDSWGQGTQVTVSS | low polyreactivity
42 | QVHLVESGGGLFQAGGSLRISCAASGSIFRFNVMGWYRQAPGKERELVAAITRGDSTNYADSVKGRFTISRDNAKNTVYLQMNSLKPEVTAVYYCAAGFYYYLRDHDYWGQGTQVTVSS | low polyreactivity
43 | QVQLVESGGGLFQAGGSLRLSCAASGLIFRAYAMVWYRQSPGKERELVADITRSGGRTYYADSVKGRFTISRDNAKNTVYLQMNSLKPEDTAVYYCAAYVYSYWFYRGYEYWGQGTQVTVSS | high polyreactivity
